Experimental findings from patent US20190309079A1 are described below.

The target in test [1] is extracellular domain of human LEPR (amino acids 22-839 of P48357, Isoform B) with N-terminal myc-myc tag, GPI-anchored on HEK293 cells (HEK293/hLEPR-GPI) (human) (UniProt P48357). The test is described as follows: FACS, HEK293/hLEPR-GPI, no Leptin. Background: Flow cytometry measures light scatter and fluorescence of single cells or particles in a stream.
The target is the same in test [2]. Description: FACS, HEK293/hLEPR-GPI, 1 uM Leptin.
Test [3] has the same target. Description: FACS, HEK293/hLEPR-GPI, no added Leptin.
Test [4] addresses full length human LEPR (amino acids 1-1165 of P48357, Isoform B) on cells (human) (UniProt P48357). The test is described as follows: FACS, HEK293/Stat3-luc/hLEPR-FL, no Leptin.
Test [5] concerns the target extracellular domain portion of LEPR protein expressed with a C-terminal human Fc tag (hLEPR.hFc) (human). The test is described as follows: blocking ELISA, hLeptin coated.
Test [6] concerns the target human LEPR CRH1 (D1)-MMH (human) (UniProt P48357). Description: Luminex, myc-captured protein on beads.
Test [7] concerns the target extracellular domain of human LEPR (amino acids 22-839 of P48357, Isoform B) with N-terminal myc-myc tag, GPI-anchored on HEK293 cells (HEK293/hLEPR-GPI) (human) (UniProt P48357). Description: FACS, 10 nM Ab, HEK293/hLEPR-GPI, 1 uM Leptin.
Test [8] shares this target. The test is described as follows: FACS, 10 nM Ab, HEK293/hLEPR-GPI, no added Leptin.
Test [9] deals with Macaca fascicularis LEPR extracellular domain expressed with a C-terminal myc-myc-hexahistidine tag (mfLEPR.mmh) (Macaca fascicularis). Description: SPR, captured mAb, 37C.
In test [10] the target is human LEPR extracellular domain expressed with a C-terminal mouse IgG2a Fc tag (hLEPR.mFc) (human). The test is described as follows: SPR, captured mAb, 37C. On the technique in general: Surface plasmon resonance follows binding to a sensor surface in real time, without labels.
For test [11], the target named is human LEPR extracellular domain expressed with a C-terminal myc-myc-hexahistidine tag (hLEPR.mmh) (human) (UniProt P48357). The test is described as follows: SPR, captured mAb, 37C.
Test [12] concerns the target Macaca fascicularis LEPR extracellular domain expressed with a C-terminal myc-myc-hexahistidine tag (mfLEPR.mmh) (Macaca fascicularis). The test is described as follows: SPR, captured mAb, 25C.
Test [13] deals with human LEPR extracellular domain expressed with a C-terminal mouse IgG2a Fc tag (hLEPR.mFc) (human). The test is described as follows: SPR, captured mAb, 25C.
Test [14] deals with human LEPR extracellular domain expressed with a C-terminal myc-myc-hexahistidine tag (hLEPR.mmh) (human) (UniProt P48357). Description: SPR, captured mAb, 25C.
Test [15] addresses extracellular domain of human LEPR (amino acids 22-839 of P48357, Isoform B) with N-terminal myc-myc tag, GPI-anchored on HEK293 cells (HEK293/hLEPR-GPI) (human) (UniProt P48357). The test is described as follows: FACS, 70 nM Ab, HEK293/hLEPR-GPI, no Leptin.
Test [16] has as its target full length human LEPR (amino acids 1-1165 of P48357, Isoform B) on cells (human) (UniProt P48357). The test is described as follows: FACS, 70 nM Ab, HEK293/Stat3-luc/hLEPR-FL, no Leptin.

extracellular domain of human LEPR (amino acids 22-839 of P48357, Isoform B) with N-terminal myc-myc tag, GPI-anchored on HEK293 cells (HEK293/hLEPR-GPI) (human), sequence (P48357 22-839, one chain of several): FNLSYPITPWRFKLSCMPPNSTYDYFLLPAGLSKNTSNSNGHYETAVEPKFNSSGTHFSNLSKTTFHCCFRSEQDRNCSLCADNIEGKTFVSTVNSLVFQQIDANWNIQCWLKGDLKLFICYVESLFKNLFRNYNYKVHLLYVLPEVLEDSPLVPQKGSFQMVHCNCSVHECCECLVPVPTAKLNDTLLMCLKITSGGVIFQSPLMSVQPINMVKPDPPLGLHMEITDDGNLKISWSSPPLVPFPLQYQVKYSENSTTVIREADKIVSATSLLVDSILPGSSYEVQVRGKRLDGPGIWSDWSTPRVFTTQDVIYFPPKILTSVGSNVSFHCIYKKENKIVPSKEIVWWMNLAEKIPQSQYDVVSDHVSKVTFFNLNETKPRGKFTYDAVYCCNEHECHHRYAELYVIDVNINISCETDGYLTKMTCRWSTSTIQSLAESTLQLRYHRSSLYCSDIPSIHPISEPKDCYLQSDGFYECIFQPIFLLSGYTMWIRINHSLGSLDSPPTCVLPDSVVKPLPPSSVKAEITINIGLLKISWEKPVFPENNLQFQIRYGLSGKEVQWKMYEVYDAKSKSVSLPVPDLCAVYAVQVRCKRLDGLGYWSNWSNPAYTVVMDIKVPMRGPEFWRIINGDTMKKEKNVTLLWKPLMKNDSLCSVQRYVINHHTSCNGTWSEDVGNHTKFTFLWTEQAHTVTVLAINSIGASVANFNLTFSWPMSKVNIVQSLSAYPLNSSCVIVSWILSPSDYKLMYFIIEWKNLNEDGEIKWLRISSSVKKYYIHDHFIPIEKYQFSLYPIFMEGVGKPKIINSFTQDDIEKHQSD
extracellular domain portion of LEPR protein expressed with a C-terminal human Fc tag (hLEPR.hFc) (human), sequence (chain, as listed by the source limits assumed): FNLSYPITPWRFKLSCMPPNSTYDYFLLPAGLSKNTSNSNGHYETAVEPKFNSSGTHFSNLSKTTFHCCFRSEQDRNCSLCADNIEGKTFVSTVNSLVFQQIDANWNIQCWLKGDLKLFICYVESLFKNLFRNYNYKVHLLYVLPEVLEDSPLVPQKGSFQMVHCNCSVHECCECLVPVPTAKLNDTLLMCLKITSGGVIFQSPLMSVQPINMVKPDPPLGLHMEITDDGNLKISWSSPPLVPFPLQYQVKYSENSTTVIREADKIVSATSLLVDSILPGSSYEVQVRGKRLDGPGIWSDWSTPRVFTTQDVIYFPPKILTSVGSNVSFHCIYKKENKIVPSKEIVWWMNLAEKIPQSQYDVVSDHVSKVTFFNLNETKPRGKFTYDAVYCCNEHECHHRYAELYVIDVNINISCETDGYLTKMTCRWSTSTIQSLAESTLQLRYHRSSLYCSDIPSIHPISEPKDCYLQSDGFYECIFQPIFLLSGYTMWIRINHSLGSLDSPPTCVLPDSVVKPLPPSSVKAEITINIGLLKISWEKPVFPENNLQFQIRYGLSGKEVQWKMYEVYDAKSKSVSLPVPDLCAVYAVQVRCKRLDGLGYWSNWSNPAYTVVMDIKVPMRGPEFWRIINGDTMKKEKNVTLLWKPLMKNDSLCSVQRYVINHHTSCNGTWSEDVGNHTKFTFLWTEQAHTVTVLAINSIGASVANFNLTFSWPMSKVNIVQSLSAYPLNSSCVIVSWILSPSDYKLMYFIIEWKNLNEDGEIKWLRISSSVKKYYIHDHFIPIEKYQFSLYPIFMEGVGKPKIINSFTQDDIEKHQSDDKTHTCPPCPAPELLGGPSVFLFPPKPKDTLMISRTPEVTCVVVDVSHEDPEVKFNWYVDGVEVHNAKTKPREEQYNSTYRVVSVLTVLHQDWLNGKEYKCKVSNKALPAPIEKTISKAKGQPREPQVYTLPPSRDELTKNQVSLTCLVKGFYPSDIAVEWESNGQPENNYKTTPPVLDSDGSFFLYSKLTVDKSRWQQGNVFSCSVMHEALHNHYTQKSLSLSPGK
human LEPR extracellular domain expressed with a C-terminal myc-myc-hexahistidine tag (hLEPR.mmh) (human), sequence (P48357 other isoform, or with tags, fused parts or gaps): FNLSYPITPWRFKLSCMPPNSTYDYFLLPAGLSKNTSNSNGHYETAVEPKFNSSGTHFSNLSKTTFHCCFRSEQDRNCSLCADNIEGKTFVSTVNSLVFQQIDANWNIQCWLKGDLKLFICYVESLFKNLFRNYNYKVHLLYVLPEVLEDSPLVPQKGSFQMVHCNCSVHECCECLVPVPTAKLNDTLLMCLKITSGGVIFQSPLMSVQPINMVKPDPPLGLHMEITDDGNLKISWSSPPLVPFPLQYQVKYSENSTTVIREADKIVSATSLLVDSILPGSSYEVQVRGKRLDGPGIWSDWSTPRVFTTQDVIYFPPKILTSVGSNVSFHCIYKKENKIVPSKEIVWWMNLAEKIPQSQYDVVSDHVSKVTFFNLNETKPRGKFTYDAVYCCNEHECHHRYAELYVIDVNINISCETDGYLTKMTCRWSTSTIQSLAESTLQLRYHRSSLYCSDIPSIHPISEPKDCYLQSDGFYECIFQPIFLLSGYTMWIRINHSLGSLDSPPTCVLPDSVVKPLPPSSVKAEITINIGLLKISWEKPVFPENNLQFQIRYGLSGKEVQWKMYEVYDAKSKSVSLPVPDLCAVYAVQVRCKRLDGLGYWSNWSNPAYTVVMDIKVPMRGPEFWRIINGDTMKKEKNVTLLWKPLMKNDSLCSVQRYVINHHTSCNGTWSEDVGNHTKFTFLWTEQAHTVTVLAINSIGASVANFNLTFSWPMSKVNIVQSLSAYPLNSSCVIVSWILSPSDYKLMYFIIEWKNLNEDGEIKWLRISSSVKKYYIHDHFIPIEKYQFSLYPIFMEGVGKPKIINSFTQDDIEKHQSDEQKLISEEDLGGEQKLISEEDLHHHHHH
human LEPR extracellular domain expressed with a C-terminal mouse IgG2a Fc tag (hLEPR.mFc) (human), sequence (chain, as listed by the source limits assumed): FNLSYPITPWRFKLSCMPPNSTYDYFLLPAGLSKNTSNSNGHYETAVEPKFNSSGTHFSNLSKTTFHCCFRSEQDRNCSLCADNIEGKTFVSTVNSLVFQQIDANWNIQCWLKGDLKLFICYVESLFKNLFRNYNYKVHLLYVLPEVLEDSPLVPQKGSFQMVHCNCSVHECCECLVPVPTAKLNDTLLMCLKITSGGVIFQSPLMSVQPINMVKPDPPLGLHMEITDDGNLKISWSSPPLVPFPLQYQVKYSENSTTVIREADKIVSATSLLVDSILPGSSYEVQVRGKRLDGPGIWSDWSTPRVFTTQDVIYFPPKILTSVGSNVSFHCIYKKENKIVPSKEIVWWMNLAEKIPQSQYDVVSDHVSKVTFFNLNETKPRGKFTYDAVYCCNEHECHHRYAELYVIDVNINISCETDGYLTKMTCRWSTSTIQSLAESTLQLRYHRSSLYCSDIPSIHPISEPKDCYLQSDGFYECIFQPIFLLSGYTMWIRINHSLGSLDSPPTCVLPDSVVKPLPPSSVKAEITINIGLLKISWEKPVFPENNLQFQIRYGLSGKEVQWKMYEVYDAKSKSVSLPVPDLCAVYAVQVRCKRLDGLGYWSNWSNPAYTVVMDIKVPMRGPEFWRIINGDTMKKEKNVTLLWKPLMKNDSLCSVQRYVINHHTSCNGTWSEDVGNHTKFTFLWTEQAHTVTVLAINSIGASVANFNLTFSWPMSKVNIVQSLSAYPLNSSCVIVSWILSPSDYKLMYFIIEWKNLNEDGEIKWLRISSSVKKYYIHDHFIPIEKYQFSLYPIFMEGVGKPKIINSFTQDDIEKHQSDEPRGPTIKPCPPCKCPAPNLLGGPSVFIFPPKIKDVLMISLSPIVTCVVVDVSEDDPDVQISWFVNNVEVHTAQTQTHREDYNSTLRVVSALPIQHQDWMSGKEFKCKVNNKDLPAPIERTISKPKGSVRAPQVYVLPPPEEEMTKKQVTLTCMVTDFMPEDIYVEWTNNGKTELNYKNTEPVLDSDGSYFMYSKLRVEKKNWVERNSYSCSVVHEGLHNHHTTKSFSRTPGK
full length human LEPR (amino acids 1-1165 of P48357, Isoform B) on cells (human), sequence (P48357 22-1165): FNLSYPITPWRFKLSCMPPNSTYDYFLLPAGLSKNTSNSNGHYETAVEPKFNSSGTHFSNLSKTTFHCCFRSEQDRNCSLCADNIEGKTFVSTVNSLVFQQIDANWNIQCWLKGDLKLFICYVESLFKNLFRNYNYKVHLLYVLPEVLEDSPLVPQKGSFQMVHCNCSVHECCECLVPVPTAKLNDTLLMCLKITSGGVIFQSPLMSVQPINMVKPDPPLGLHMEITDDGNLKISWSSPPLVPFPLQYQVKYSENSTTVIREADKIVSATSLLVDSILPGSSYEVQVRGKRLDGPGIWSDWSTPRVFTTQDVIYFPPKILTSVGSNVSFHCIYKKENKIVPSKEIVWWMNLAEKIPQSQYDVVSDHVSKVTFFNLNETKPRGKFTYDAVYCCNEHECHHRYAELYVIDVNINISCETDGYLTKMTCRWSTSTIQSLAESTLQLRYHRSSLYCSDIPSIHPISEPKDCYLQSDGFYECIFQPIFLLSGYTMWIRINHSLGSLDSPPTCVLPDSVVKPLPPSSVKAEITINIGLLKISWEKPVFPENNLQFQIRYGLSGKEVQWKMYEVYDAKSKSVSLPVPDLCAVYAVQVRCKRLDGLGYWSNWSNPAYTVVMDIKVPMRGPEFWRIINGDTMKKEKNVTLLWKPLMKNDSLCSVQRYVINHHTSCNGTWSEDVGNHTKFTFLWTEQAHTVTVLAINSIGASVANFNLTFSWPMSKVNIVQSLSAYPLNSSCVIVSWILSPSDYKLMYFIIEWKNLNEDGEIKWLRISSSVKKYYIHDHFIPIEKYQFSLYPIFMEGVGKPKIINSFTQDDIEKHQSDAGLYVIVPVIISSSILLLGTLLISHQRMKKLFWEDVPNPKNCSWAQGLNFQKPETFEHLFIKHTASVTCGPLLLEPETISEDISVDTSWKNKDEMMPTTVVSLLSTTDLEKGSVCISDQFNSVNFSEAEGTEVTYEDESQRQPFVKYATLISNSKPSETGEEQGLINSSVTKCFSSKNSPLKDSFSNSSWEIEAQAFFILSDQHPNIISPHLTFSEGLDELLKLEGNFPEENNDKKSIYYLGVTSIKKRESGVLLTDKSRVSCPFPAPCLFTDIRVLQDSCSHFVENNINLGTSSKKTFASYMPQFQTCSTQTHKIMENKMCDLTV

As for “Alexa Fluor-647 conjugated secondary antibody (Jackson ImmunoResearch Laboratories Inc., #109-547-003), alone”, the Binding Ratio (normalized to unstained) in test [1] stood at 1 fold; in test [2], 3 fold; in test [3], 3 fold; in test [4] it was 1 fold.
As for “Comparator mAb (Fab9F8 described in Fazeli et al. 2006 and Carpenter et al. 2012) (antibody)”, the 500 nM Ab Blocking of 10 nM hLEPR.hFc Binding to hLeptin (% blockade) in test [5] was 99%. The same substance displayed a Luminex MFI in test [6] of 14 MFI. Also, the values for the Binding Ratio (normalized to unstained) in test [7] and in test [8] were 112 fold and 2350 fold, respectively.
Isotype Control monoclonal antibody registered a 100 nM mfLEPR.MMH Bound (RU) in [9] of 1 RU. For the same substance, the 100 nM hLEPR-mFc Bound (RU) was 1 RU in test [10] and -2 RU in test [13]. The substance also displayed a 100 nM hLEPR-MMH Bound (RU) in test [11] of 6 RU. Also, the 100 nM mfLEP.MMH Bound (RU) in test [12] was 0 RU. Besides, in test [14], the 100 nM hLEPR-mmH Bound (RU) came to 4 RU. The 500 nM Ab Blocking of 10 nM hLEPR.hFc Binding to hLeptin (% blockade) in test [5] is -3%. Moreover, the Binding Ratio (normalized to unstained) in [15] was determined as 2 fold; in test [7], 4 fold; in test [8], 6 fold; in [16], 2 fold.
Consider Mouse IgG2a Isotype control (antibody), for which the 500 nM Ab Blocking of 10 nM hLEPR.hFc Binding to hLeptin (% blockade) in [5] was determined as 32%.
